Results on 84 variants are retold here after the RNAGym collection of RNA variant scans (doi:10.1101/gr.219683.116).

The chains are these.
B1: mRNA-splicing (parent)
chain: AGUUGCUGCUGGGAGCUCCAGCACAGUGAAAUGGACAGAAGGGCAGAGCAA

The variants in the series derive from B1. Put plainly: exon inclusion enrichment index; higher = more inclusion; WT1 exon 5 minigene, HEK293.
In the case of G5A U7C G8A U10C G43U C44G, the “exon inclusion enrichment index” value is 0.5.

C6A U7C C9U U10C: the “exon inclusion enrichment index” value was found to be 2.52.

On to C6A U7C C9U U10A, for which the “exon inclusion enrichment index” value was 0.0495.

Regarding C6A U7C C9A U10C A37C G38C, the “exon inclusion enrichment index” value was determined as 3.1.

On to G11A G12A, for which the “exon inclusion enrichment index” value was found to be 0.676.

G5A U7C G8A C9G U10G: the “exon inclusion enrichment index” value was 0.236.

Consider C6A U7A C9A U10A A30C, for which the “exon inclusion enrichment index” value was 0.809.

For G5A C6U U7A G8U C9A G42C G43U, the “exon inclusion enrichment index” value worked out at 0.352.

Regarding G5C C6G U7C U10C G33A, the “exon inclusion enrichment index” value worked out at 0.609.

Turning to G5A C6G U7G C9A A37G G38C, the “exon inclusion enrichment index” value worked out at 0.00203.

On to G2A U3A G5A C6G U7G C9A, for which the “exon inclusion enrichment index” value was 0.00701.

Consider G5C C6U G8C C9U U10C G15A C16A, for which the “exon inclusion enrichment index” value turned out to be 1.24.

For G5C C6U G8C C9U U10C G42C G43A, the “exon inclusion enrichment index” value was determined as 2.79.

On to A20G G21A, for which the “exon inclusion enrichment index” value worked out at 2.89.

On to G5U C6G U7C G8A U10C, for which the “exon inclusion enrichment index” value stood at 2.27.

With G5C C6G U7C U10C G11C G12C, the “exon inclusion enrichment index” value stood at 1.04.

With G5C C6G U7C U10C G11C G12U, the “exon inclusion enrichment index” value was found to be 0.699.

Turning to C6A U7C C9A U10C C24G A25C, the “exon inclusion enrichment index” value came out at 4.59.

On to A47U G48A, for which the “exon inclusion enrichment index” value amounted to 0.123.

Turning to G5U G8U C9U A35C C36G, the “exon inclusion enrichment index” value was found to be 0.125.

In the case of G5C C6A U7C G8A U10A A25C G26C, the “exon inclusion enrichment index” value was determined as 0.037.

As for G5A C6U, the “exon inclusion enrichment index” value worked out at 0.0142.

For G5A U7C G8A U10C A40G, the “exon inclusion enrichment index” value worked out at 1.93.

Turning to C6A U7A C9A U10A A37U, the “exon inclusion enrichment index” value is 0.746.

As for C6A U7A C9A U10A C19U A20U, the “exon inclusion enrichment index” value stood at 0.19.

Turning to G5C C6G U7C U10C G41C G42A, the “exon inclusion enrichment index” value stood at 3.

As for G5U G8U C9U A20U G21U, the “exon inclusion enrichment index” value is 0.0618.

For U4A C6G U7G C9A, the “exon inclusion enrichment index” value came to 0.00639.

As to G5A U7C G8A U10C A30C, the “exon inclusion enrichment index” value turned out to be 2.51.

On to G2C U3A G5A C6U U7A G8U C9A, for which the “exon inclusion enrichment index” value was 0.0584.

On to G5A C6G U7G C9A U32C G33A, for which the “exon inclusion enrichment index” value was 0.00102.

As for C6A U7A C9A U10A G12A G13A, the “exon inclusion enrichment index” value was 1.6.

As to G5C C6G U7C U10C G11C, the “exon inclusion enrichment index” value turned out to be 2.92.

Turning to G2U U3A C6A U7C C9A U10C, the “exon inclusion enrichment index” value is 4.33.

Turning to G5A U7C G8A U10C G42C G43A, the “exon inclusion enrichment index” value came out at 3.

Regarding G5A C6G U7G C9A G28C A29G, the “exon inclusion enrichment index” value is 0.0115.

In the case of G5A C6G U7G C9A A31G U32G, the “exon inclusion enrichment index” value was 0.0039.

With U4G G5C C6G U7G C9A, the “exon inclusion enrichment index” value was found to be 0.248.

C6A U7A C9A U10A A35C C36A: the “exon inclusion enrichment index” value amounted to 0.329.

For C6A U7A C9A U10A A35C C36G, the “exon inclusion enrichment index” value is 0.657.

G5A U7C G8A U10C G46C A47G: the “exon inclusion enrichment index” value stood at 2.57.

On to G5A U7C G8A U10C G38C A39C, for which the “exon inclusion enrichment index” value was found to be 2.25.

As to C6A U7A C9A U10A A45C G46U, the “exon inclusion enrichment index” value is 0.191.

As to G26A, the “exon inclusion enrichment index” value came to 0.0943.

G26U: the “exon inclusion enrichment index” value is 0.137.

As to G5C C6A U7C G8A U10A G38A A39C, the “exon inclusion enrichment index” value stood at 0.107.

As for C6A U7A C9A U10A C36G A37U, the “exon inclusion enrichment index” value is 0.216.

With G5A C6G U7G C9A C19A A20G, the “exon inclusion enrichment index” value worked out at 0.00156.

For C6A U7A C9A U10A G21C C22U, the “exon inclusion enrichment index” value amounted to 0.813.

In the case of G5A C6U U7G G8A U10C, the “exon inclusion enrichment index” value is 1.97.

As to G5C C6G U7C U10C A47U, the “exon inclusion enrichment index” value stood at 3.3.

Take A23G C24U: the “exon inclusion enrichment index” value came to 0.167.

Regarding G5A C6G U7G C9A G13C A14U, the “exon inclusion enrichment index” value came to 0.0025.

For the variant G5A C6G U7G C9A C22A, the “exon inclusion enrichment index” value was 0.00351.

Take G5A U7C G8A U10C G28C: the “exon inclusion enrichment index” value is 1.68.

In the case of G5U G8U C9U C16G U17A, the “exon inclusion enrichment index” value turned out to be 0.115.

On to C6A U7A C9A U10A A20U, for which the “exon inclusion enrichment index” value worked out at 0.829.

On to C6A U7C C9A U10C G43C C44A, for which the “exon inclusion enrichment index” value is 3.8.

As for G5C C6U G8C C9U U10C A47C G48C, the “exon inclusion enrichment index” value was determined as 1.78.

Regarding U4C G5C, the “exon inclusion enrichment index” value was determined as 0.153.

For C6A U7C C9A U10C A45C G46A, the “exon inclusion enrichment index” value worked out at 1.88.

For the variant C6A U7C C9A U10C A45C G46U, the “exon inclusion enrichment index” value was found to be 1.54.

On to U4A, for which the “exon inclusion enrichment index” value is 0.00347.

In the case of G5A C6U U7A G8U C9A G34C A35G, the “exon inclusion enrichment index” value came out at 0.0452.

On to G15C C16U, for which the “exon inclusion enrichment index” value was 0.0653.

Turning to G2U U3C C6A U7A C9A U10A, the “exon inclusion enrichment index” value was 2.31.

As for G5A C6G U7C C9A, the “exon inclusion enrichment index” value came out at 0.117.

In the case of G5A C6G U7G C9G U10C, the “exon inclusion enrichment index” value turned out to be 0.00245.

Turning to G5A C6U U7A G8U C9A G21A C22G, the “exon inclusion enrichment index” value was 0.0719.

Consider G12A G13U, for which the “exon inclusion enrichment index” value came to 0.459.

A25C G26C: the “exon inclusion enrichment index” value is 0.435.

On to G5C C6U G8C C9U U10C A31U U32A, for which the “exon inclusion enrichment index” value was determined as 0.179.

Consider G5A C6U U7A G8U C9A G33U G34A, for which the “exon inclusion enrichment index” value is 0.0131.

With G5U G8U C9U A31G U32A, the “exon inclusion enrichment index” value came to 1.22.

On to G5C C6A U7C G8A U10A A31U U32A, for which the “exon inclusion enrichment index” value amounted to 0.00816.

With C6A U7C C9A U10C U27G G28C, the “exon inclusion enrichment index” value amounted to 2.4.

As for G5A C6U U7A G8U C9A G46U A47U, the “exon inclusion enrichment index” value came out at 0.0891.

For G5A C6G U7G C9A A23U, the “exon inclusion enrichment index” value worked out at 0.0012.

On to G5C C6G U7C U10C G38C A39U, for which the “exon inclusion enrichment index” value was 0.532.

Turning to G5A C6G U7G C9A G46U A47U, the “exon inclusion enrichment index” value stood at 0.00177.

With U4C G5U C6A U7A C9A U10A, the “exon inclusion enrichment index” value stood at 0.296.

As to G5C C6G U7C U10C C24U A25C, the “exon inclusion enrichment index” value came out at 4.56.

As for C6A U7C C9A G11C, the “exon inclusion enrichment index” value is 2.88.

On to G5C C6U G8C C9U U10C C36A, for which the “exon inclusion enrichment index” value stood at 1.44.
